In the supplement of paper PMC7877785:
± gives the uncertainty stated by the source.

Experiment: self-splicing fitness, log relative to wild type (ln ratio); higher = more splicing; Tetrahymena group I intron in knt gene, E. coli kanamycin selection, DiMSum; sequences stand for … in CUCUCU…GGAGGGAAAAGUUAUCAGGCAUGCACCUGGUAGCUAGUCUUUAAACCAAUAGAUUGCAUCGGUUUAAAAGGCAAGACCGUCAAAUUGCGGGAAAGGGGUCAACAGCCGUUCAGUACCAAGUCUCAGGGGAAACUUUGAGAUGGCCUUGCAAAGGGUAUGGUAAUAAGCUGACGGACAUGGUCCUAACCACGCAGCCAAGUCCUAAGUCAACAGAUCUUCUGUUGAUAUGGAUGCAGUUCACAGACUAAAUGUCGGUCGGGGAAGAUGUAUUCUUCUCAUAAGAUAUAGUCGGACCUCUCCUUAAUGGGAGCUAGCGGAUGAAGUGAUGCAACACUGGAGCCGCUGGGAACUAAUUUGUAUGCGAAAGUAUAUUGAUUAGUUUUGGAGUACUCGUGGUCG
How it was run: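 Pooled colonies went to amplicon sequencing on an Illumina HiSeq 2500 after six replicate transformations. The plates were LB agar with 100 μg/mL carbenicillin, 50 μM IPTG and 0.2% rhamnose, with or without 25 μg/mL kanamycin, incubated overnight at 37°C or 30°C. The E. coli BL21(DE3) library had all eight P1ex-region intron nucleotides randomised, the intron placed in the knt kanamycin-resistance gene on pET-22b(+). DiMSum fitness is the error-weighted combination of replicate fold changes, kanamycin against none, normalised to wild type.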

| Sequence | self-splicing fitness (ln) (30 °C) | self-splicing fitness (ln) (37 °C) |
| --- | --- | --- |
| GGAAAGCAAUAUUACGCCUC | -1.14 ± 0.16 | -1.03 ± 0.19 |
| UGCUAGCAAUAUUACGAAUC | -3.2 ± 0.15 | -3.95 ± 0.29 |
| CUACAGCAAUAUUACGUAUA | -2.73 ± 0.2 | -1.13 ± 0.18 |
| CUGGAGCAAUAUUACGUAAA | -3.78 ± 0.36 | -2.22 ± 0.3 |
| AGCAAGCAAUAUUACGGUCU | -0.739 ± 0.069 | 0.0318 ± 0.085 |
| CCACAGCAAUAUUACGGGCU | -4.83 ± 0.27 | -3.07 ± 0.18 |
| UCAUAGCAAUAUUACGGCGU | -3.73 ± 0.14 | -3.17 ± 0.19 |
| CAGUAGCAAUAUUACGAGCC | -3.88 ± 0.37 | -3.14 ± 0.47 |
| CGUAAGCAAUAUUACGUAUG | -2.17 ± 0.08 | -0.311 ± 0.072 |
| AAUUAGCAAUAUUACGUGUC | -3.59 ± 0.29 | -1.79 ± 0.2 |
| ACCGAGCAAUAUUACGAGCA | -2.63 ± 0.13 | -1.99 ± 0.13 |
| GUCUAGCAAUAUUACGUAAG | -1.02 ± 0.099 | -0.654 ± 0.13 |
| UUUCAGCAAUAUUACGACAC | -2.24 ± 0.16 | -2.97 ± 0.22 |
| UCCAAGCAAUAUUACGGUAU | -2.72 ± 0.14 | -2.02 ± 0.12 |
| CACGAGCAAUAUUACGUACC | -2.54 ± 0.5 | – |
| AAGCAGCAAUAUUACGACCA | -0.635 ± 0.12 | -0.265 ± 0.14 |
| UGUAAGCAAUAUUACGCUAU | -3.7 ± 0.32 | -2.24 ± 0.29 |
| GGGCAGCAAUAUUACGUACC | -1.88 ± 0.31 | -1.39 ± 0.48 |
| GUGUAGCAAUAUUACGGUGU | -2.26 ± 0.16 | -0.0252 ± 0.14 |
| GCGAAGCAAUAUUACGACGA | 0.0165 ± 0.18 | 0.163 ± 0.2 |

| Sequence | self-splicing fitness (ln) (30 °C) | self-splicing fitness (ln) (37 °C) |
| --- | --- | --- |
| ACAAAGCAAUAUUACGAUAG | -3.47 ± 0.17 | -2.21 ± 0.19 |
| CGUUAGCAAUAUUACGGGCG | -3.04 ± 0.24 | -2.38 ± 0.3 |
| CAGCAGCAAUAUUACGUCAU | -4.22 ± 0.33 | -2.77 ± 0.23 |
| UAUUAGCAAUAUUACGAUUC | -1.88 ± 0.16 | -0.062 ± 0.18 |
| GGGCAGCAAUAUUACGCUCA | -1.09 ± 0.094 | -0.272 ± 0.16 |
| AAGCAGCAAUAUUACGUUCU | -0.454 ± 0.056 | 0.0556 ± 0.076 |
| CUUUAGCAAUAUUACGGGCG | -0.935 ± 0.12 | 0.00294 ± 0.15 |
| UGUUAGCAAUAUUACGGGGU | -2.47 ± 0.26 | – |
| UGCCAGCAAUAUUACGUUCA | -0.171 ± 0.059 | -0.0317 ± 0.089 |
| ACAAAGCAAUAUUACGUGUG | -1.91 ± 0.052 | -0.905 ± 0.057 |
| CACCAGCAAUAUUACGGCGC | -2.3 ± 0.11 | -1.5 ± 0.13 |
| AGUGAGCAAUAUUACGACUU | -1.18 ± 0.17 | -0.93 ± 0.19 |
| CCAGAGCAAUAUUACGGGGC | -3.91 ± 0.24 | -2.8 ± 0.21 |
| GAUUAGCAAUAUUACGGCCC | -0.175 ± 0.083 | -0.352 ± 0.12 |
| AAAGAGCAAUAUUACGGAUG | -4.57 ± 0.42 | -2.06 ± 0.23 |
| GCCCAGCAAUAUUACGUCCU | -1.19 ± 0.11 | -0.722 ± 0.17 |
| CAGCAGCAAUAUUACGCAUU | -3.68 ± 0.15 | -0.546 ± 0.089 |
| AAGUAGCAAUAUUACGGGGC | -3.29 ± 0.3 | -3.4 ± 0.26 |
| AUCAAGCAAUAUUACGGUCG | -2.22 ± 0.12 | -2.03 ± 0.14 |
| ACCUAGCAAUAUUACGCCUA | -2.17 ± 0.3 | -2.38 ± 0.3 |

| Sequence | self-splicing fitness (ln) (30 °C) | self-splicing fitness (ln) (37 °C) |
| --- | --- | --- |
| GACCAGCAAUAUUACGCGUC | -4.75 ± 0.38 | -2.54 ± 0.22 |
| GUUGAGCAAUAUUACGUUUA | -3.32 ± 0.28 | -2.33 ± 0.31 |
| UUACAGCAAUAUUACGGCGG | -0.579 ± 0.087 | 0.426 ± 0.13 |
| AAUCAGCAAUAUUACGCCUG | -0.906 ± 0.17 | 0.165 ± 0.18 |
| AGCAAGCAAUAUUACGAGGG | -3.29 ± 0.1 | -2.58 ± 0.15 |
| CCGAAGCAAUAUUACGAGCC | -3.7 ± 0.26 | -2.8 ± 0.23 |
| UCAGAGCAAUAUUACGUCCA | -3.75 ± 0.47 | -2.25 ± 0.39 |
| UAGUAGCAAUAUUACGGCAG | -1.01 ± 0.11 | -1.57 ± 0.14 |
| AGAUAGCAAUAUUACGGGUC | -3.73 ± 0.25 | -2.36 ± 0.25 |
| AUUGAGCAAUAUUACGUUUU | -3.05 ± 0.17 | -1.38 ± 0.22 |
| UCACAGCAAUAUUACGGCUG | -3.35 ± 0.16 | -2.96 ± 0.23 |
| CUCUAGCAAUAUUACGAGGG | -3.28 ± 0.22 | -1.45 ± 0.18 |
| GUUCAGCAAUAUUACGCAGU | -1.18 ± 0.14 | 0.201 ± 0.22 |
| AGAAAGCAAUAUUACGGGUU | -2.85 ± 0.15 | -1.61 ± 0.12 |
| CCGUAGCAAUAUUACGCUUG | -1.48 ± 0.069 | -0.347 ± 0.075 |
| ACUCAGCAAUAUUACGAAAC | -2.62 ± 0.092 | -1.43 ± 0.11 |
| ACGUAGCAAUAUUACGGCAG | -4.15 ± 0.28 | -2.61 ± 0.33 |
| UGAGAGCAAUAUUACGAUAG | -3.19 ± 0.38 | -2.11 ± 0.26 |
| AAACAGCAAUAUUACGUUCG | -1.23 ± 0.051 | -0.286 ± 0.068 |
| ACUCAGCAAUAUUACGUUUA | -1.54 ± 0.078 | -0.51 ± 0.086 |
